B1: MCT1 (monocarboxylate transporter 1), endogenous (other, human, UniProt P53985 1-500, looked up)
chain: MPPAVGGPVGYTPPDGGWGWAVVIGAFISIGFSYAFPKSITVFFKEIEGIFHATTSEVSWISSIMLAVMYGGGPISSILVNKYGSRIVMIVGGCLSGCGLIAASFCNTVQQLYVCIGVIGGLGLAFNLNPALTMIGKYFYKRRPLANGLAMAGSPVFLCTLAPLNQVFFGIFGWRGSFLILGGLLLNCCVAGALMRPIGPKPTKAGKDKSKASLEKAGKSGVKKDLHDANTDLIGRHPKQEKRSVFQTINQFLDLTLFTHRGFLLYLSGNVIMFFGLFAPLVFLSSYGKSQHYSSEKSAFLLSILAFVDMVARPSMGLVANTKPIRPRIQYFFAASVVANGVCHMLAPLSTTYVGFCVYAGFFGFAFGWLSSVLFETLMDLVGPQRFSSAVGLVTIVECCPVLLGPPLLGRLNDMYGDYKYTYWACGVVLIISGIYLFIGMGINYRLLAKEQKANEQKKESKEEETSIDVAGKPNEVTKAAESPDQKDTDGGPKEEESPV
notes: Endogenous protein in HEK 293T or MM1S cell lysates

One assay deals with T1, HA-CUL4A (UniProt Q13619 1-759, limits assumed).
T1 construct: Purified from HEK293T cells and incubated with MM1S cell extracts; not shown: HA tag
As to the kind of experiment: HA-CUL4A purified from HEK293T cells, incubated with MM1S extracts, immunoblot. The source says:
Bound protein fractions were subjected to immunoblot analysis using the indicated antibodies.
Background: Immunoblotting shows a protein as a band on a membrane.

In assay [1] the target is T2, Cereblon (CRBN), human, wild type, without tag (endogenous or expressed from plasmid) (human, UniProt Q96SW2 1-442).
T2 construct: Endogenous protein in HEK 293T or MM1.S/MM1S lysates, or untagged wild-type CRBN re-expressed in CRBN-/- HEK 293T cells; also called CRBN WT; endogenous CRBN
As to the kind of experiment: co-immunoprecipitation.
Description: Immunocomplexes were probed with antibodies to the indicated proteins.
(§1) Cell samples were lysed in lysis buffer (NaCl 150mM, Tris-HCl 50 mM, MgCl2 5 mM, EDTA 1 mM, NP-40 0,1%, Glycerol 5% and inhibitors) for whole cell lysates, immunoprecipitations or pulldown experiments. […] Briefly, the cellular lysates were centrifuged 15 min at 14,000 rpm at 4° C. to separate from cellular debris. Protein concentration in the supernatants was measured before Laemmli buffer was added. The lysates were separated by SDS-PAGE and blotted onto PVDF (polyvinylidene difluoride) membranes. After blotting, PVDF membranes were stained with Ponceau solution to evaluate protein loading. After washing and blocking unspecific bindings in 5% milk, the membranes were incubated with primary antibodies. After addition of horseradish peroxidase coupled secondary antibodies, western blot membranes were developed using the ECL (enhanced chemoluminescence) method (SuperSignal West reagents from Thermo Scientific). […] For the experiments using a protein cross linker, DSS (Pierce) was added to the cells to a final concentration of 1 mM for 45 minutes at RT. […] After washing the beads four times in lysis buffer, Laemmli buffer was added and proteins were analyzed by SDS- electrophoresis.

The target in assay [2] is T3, FLAG-MCT1 (human, UniProt P53985 1-500).
T3 construct: Expressed in HEK293T cells; The tag is written first only because the name prints it so; also called Flag-tagged MCT1; not shown: FLAG tag
T3 sequence (looked up): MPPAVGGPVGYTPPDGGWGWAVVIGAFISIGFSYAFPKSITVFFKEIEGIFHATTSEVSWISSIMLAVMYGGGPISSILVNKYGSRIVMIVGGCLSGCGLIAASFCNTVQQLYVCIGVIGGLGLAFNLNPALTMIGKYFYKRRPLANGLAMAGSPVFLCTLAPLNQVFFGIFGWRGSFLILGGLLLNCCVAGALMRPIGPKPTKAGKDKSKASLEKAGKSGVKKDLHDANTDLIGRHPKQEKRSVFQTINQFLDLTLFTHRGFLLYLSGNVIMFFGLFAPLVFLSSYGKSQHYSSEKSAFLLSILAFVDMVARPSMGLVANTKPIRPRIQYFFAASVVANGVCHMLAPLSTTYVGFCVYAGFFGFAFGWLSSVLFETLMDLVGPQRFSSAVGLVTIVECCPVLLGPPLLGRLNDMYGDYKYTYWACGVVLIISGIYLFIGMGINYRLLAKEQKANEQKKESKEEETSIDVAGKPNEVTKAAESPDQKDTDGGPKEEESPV
As to the kind of experiment: FLAG-MCT1 immunoprecipitation from cycloheximide-treated HEK293T cells, immunoblot (FIG. 13G).

The target of assay [3] is T4, Strep-Flag tagged CRBN (CRBN-SF) (human, UniProt Q96SW2 1-442).
T4 construct: Tag put at the C-terminus from the vector's name (pcDNA-C-SF-TAP); also called CRBN-SF-TAP; CRBN-tandem-Strep-FLAG-tagged; not shown: tandem Strep-FLAG tag of vector pcDNA-C-SF-TAP
As to the kind of experiment: tandem affinity purification (Strep, then Flag) from HEK 293T cells, mass spectrometry.

Assay [4] deals with T3, FLAG-MCT1. As to the kind of experiment: Flag-bead immunoprecipitation of Flag-MCT1 from HEK 293T cells with or without co-expressed CRBN, Western blot for CD147.
Description: After lysis, MCT1 was immunoprecipitated with Flag-beads. Binding to CD147 was analysed by Western Blot.
as §1
For assay [5], the target named is B1. As to the kind of experiment: FLAG-CD147 immunoprecipitation from cycloheximide-treated HEK293T cells, immunoblot (FIG. 13F). As for the experimental part: Cells were treated with cycloheximide (CHX) for the indicated times before lysis.
Assay [6] concerns the target T2, Cereblon (CRBN), human, wild type, …. As to the kind of experiment: heading of FIG. 16: FLAG immunoprecipitation from HEK293T cells (16A) and GST-CRBN pull-down (16B).

T1 sequence (Q13619 whole entry): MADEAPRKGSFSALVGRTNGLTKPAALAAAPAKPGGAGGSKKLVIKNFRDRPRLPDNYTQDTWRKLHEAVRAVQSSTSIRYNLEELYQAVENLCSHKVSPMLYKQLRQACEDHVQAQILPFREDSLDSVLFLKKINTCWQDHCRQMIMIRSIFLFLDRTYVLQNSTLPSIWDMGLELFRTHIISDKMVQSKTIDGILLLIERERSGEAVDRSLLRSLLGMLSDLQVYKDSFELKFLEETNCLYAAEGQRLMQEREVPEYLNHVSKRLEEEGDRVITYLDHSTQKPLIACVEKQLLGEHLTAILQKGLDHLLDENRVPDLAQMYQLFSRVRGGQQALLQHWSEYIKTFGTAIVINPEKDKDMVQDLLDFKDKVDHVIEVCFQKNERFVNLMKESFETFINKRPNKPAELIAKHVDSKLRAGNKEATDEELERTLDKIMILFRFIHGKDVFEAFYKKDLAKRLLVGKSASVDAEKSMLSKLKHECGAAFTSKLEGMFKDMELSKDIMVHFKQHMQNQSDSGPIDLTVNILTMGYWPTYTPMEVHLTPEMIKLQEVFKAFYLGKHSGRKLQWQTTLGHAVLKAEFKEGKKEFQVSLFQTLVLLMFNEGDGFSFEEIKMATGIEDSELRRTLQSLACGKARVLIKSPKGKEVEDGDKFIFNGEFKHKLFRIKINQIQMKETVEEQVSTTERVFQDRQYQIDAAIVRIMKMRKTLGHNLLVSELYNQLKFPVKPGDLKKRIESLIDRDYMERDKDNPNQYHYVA
T2 sequence (Q96SW2 whole entry): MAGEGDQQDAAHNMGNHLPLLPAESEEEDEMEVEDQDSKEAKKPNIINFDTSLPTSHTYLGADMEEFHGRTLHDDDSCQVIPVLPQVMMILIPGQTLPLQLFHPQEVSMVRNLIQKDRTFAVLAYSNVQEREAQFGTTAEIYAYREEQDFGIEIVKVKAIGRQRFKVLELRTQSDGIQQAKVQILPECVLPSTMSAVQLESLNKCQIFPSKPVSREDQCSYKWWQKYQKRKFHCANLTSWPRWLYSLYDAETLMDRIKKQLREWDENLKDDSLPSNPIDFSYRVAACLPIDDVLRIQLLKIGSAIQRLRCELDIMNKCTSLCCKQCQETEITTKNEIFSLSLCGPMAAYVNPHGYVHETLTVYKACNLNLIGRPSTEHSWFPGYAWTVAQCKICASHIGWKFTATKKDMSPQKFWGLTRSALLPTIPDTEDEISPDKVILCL
T4 sequence (Q96SW2 whole entry): as above

On to B1, for which the binding result with HA-CUL4A is reported as “no binding”.

B2: CD147 (Basigin, EMMPRIN), endogenous (other, human, UniProt P35613-2 22-269, looked up)
chain: AAGTVFTTVEDLGSKILLTCSLNDSATEVTGHRWLKGGVVLKEDALPGQKTEFKVDSDDQWGEYSCVFLPEPMGTANIQLHGPPRVKAVKSSEHINEGETAMLVCKSESVPPVTDWAWYKITDSEDKALMNGSESRFFVSSSQGRSELHIENLNMEADPGQYRCNGTSSKGSDQAIITLRVRSHLAALWPFLGIVAEVLVLVTIIFIYEKRRKPEDVLDDDDAGSAPLKSSGQHQNDKGKNVRQRNSS
modifications: core-glycosylated (CG) and high-glycosylated (HG) forms
notes: as for B1
On to B2, for which the binding result in assay [1] was “binds”; with FLAG-MCT1 [2], “binds”; with HA-CUL4A, “no binding”; in assay [3], “binds”.

B3: HA-CD147 (other, human, UniProt P35613-2 22-269, looked up)
chain: AAGTVFTTVEDLGSKILLTCSLNDSATEVTGHRWLKGGVVLKEDALPGQKTEFKVDSDDQWGEYSCVFLPEPMGTANIQLHGPPRVKAVKSSEHINEGETAMLVCKSESVPPVTDWAWYKITDSEDKALMNGSESRFFVSSSQGRSELHIENLNMEADPGQYRCNGTSSKGSDQAIITLRVRSHLAALWPFLGIVAEVLVLVTIIFIYEKRRKPEDVLDDDDAGSAPLKSSGQHQNDKGKNVRQRNSS
notes: Expressed in HEK 293T cells; not shown: HA tag
In the case of B3, in the assay with FLAG-MCT1 [4], the binding result was “binds”.

B4: FLAG-CD147 (other, human, UniProt P35613-2 22-269, looked up)
chain: AAGTVFTTVEDLGSKILLTCSLNDSATEVTGHRWLKGGVVLKEDALPGQKTEFKVDSDDQWGEYSCVFLPEPMGTANIQLHGPPRVKAVKSSEHINEGETAMLVCKSESVPPVTDWAWYKITDSEDKALMNGSESRFFVSSSQGRSELHIENLNMEADPGQYRCNGTSSKGSDQAIITLRVRSHLAALWPFLGIVAEVLVLVTIIFIYEKRRKPEDVLDDDDAGSAPLKSSGQHQNDKGKNVRQRNSS
notes: Expressed in HEK293T cells; The tag is written first only because the name prints it so; also called FLAG-tagged CD147; not shown: FLAG tag
On to B4, for which the binding result in assay [5] and in assay [6] was “binds” in each case.

Source of the values: patent US20170296524A1 (KLINIKUM RECHTS DER ISAR DER TECHNISCHEN UNIVERSITAT MUNCHEN, published 2017).
